Results from paper PMC10069166 (Heliyon, 2023).

Molecular target: SARS-CoV-2 Spike protein (RBD, His & Avi tag) (SARS-CoV-2, wild type, UniProt P0DTC2)
Assay: BLI

B1: 80R antibody (antibody, V domains shown)
VH: EVQLVQSGGGVVQPGKSLRLSCAASGFAFSSYAMHWVRQAPGKGLEWVAVISYDGSNKYYADSVKGRFTISRDNSKNTLYLQMNSLRAEDTAVYYCARDRSYYLDYWGQGTLVTVSS
VL: TTLTQSPATLSLSPGERATLSCRASQSVRSNLAWYQQKPGQAPRPLIYDASTRATGIPDRFSGSGSGTDFTLTISRLEPEDFAVYYCQQRSNWPPTFGQGTKVEVK
Does B1 bind?
Result: no binding (tested: 20 nM and 10 nM)
